Reference: US20110065645A1, “Compositions and Methods for Modulating Neuron Degeneration and Neuron Guidance” (The Regents of the University of California, priority 2009, published 2011)

Test system: JNK
Assay: Phospho-Jun immunoblot in HEK293T cells expressing Fzd3-mCherry
Type: cell-based
Details: Wnt5a added
From the text: Vgl2 antagonizes Dvl1's feedback inhibition of Fzd3 mediated Wnt/PCP Signaling. To elucidate how core PCP components function cell autonomously, we first explored how Dvl1, Vgl2 and Fzd3 interact with each other. It is known that Dvl is a central cytoplamsic molecule in the activation of Wnt-PCP signaling. In non-canonical signaling, Fzd is thought recruit Dvl to the plasma membrane and Dvl then subsequently activates the downstream signaling, such as Jun N terminal kinases (JNK), Rac1 and RhoA. […] However, upon co-expression of Fzd3 and Dvl1, we found a surprising Wnt5a-dependent down regulation of p-Jun level (FIG. 17A, lanes 5-7, quantified in FIG. 17B), uncovering a novel feedback inhibition mechanism in PCP signaling. With 30 minutes of Wnt5a addition p-Jun signal is essentially gone in Fzd3 and Dvl1 co expressing cells, (FIG. 17A lane 7).
Surface biotinylation and immunopreciptiation. […] For the membrane immunoprecipitation, 600 ug of protein extracts were incubated overnight and retrieved by NeutrAvidin-coated Agarose beads (Pierce), the bound fraction was boiled and loaded on SDS-PAGE gel and analyzed by western blot analysis. […]

B1: Wnt5a: recombinant Wnt5a protein (R&D Systems) (protein, UniProt P41221 62-380, looked up)
Protein Wnt-5a: IIGAQPLCSQLAGLSQGQKKLCHLYQDHMQYIGEGAKTGIKECQYQFRHRRWNCSTVDNTSVFGRVMQIGSRETAFTYAVSAAGVVNAMSRACREGELSTCGCSRAARPKDLPRDWLWGGCGDNIDYGYRFAKEFVDARERERIHAKGSYESARILMNLHNNEAGRRTVYNLADVACKCHGVSGSCSLKTCWLQLADFRKVGDALKEKYDSAAAMRLNSRGKLVQVNSRFNSPTTQDLVYIDPSPDYCVRNESTGSLGTQGRLCNKTSEGMDGCELMCCGRGYDQFKTVQTERCHCKFHWCCYVKCKKCTEIVDQFVCK
  p-Jun level: increased
